{"source": "patent US20080118529A1", "about": "(published 2008)", "binders": {"B1": {"name": "Tissue-type plasminogen activator (tPA, Actilyse, Boehringer-Ingelheim) (enzyme, human, UniProt P00750 36-562, looked up)", "chain": "SYQVICRDEKTQMIYQQHQSWLRPVLRSNRVEYCWCNSGRAQCHSVPVKSCSEPRCFNGGTCQQALYFSDFVCQCPEGFAGKCCEIDTRATCYEDQGISYRGTWSTAESGAECTNWNSSALAQKPYSGRRPDAIRLGLGNHNYCRNPDRDSKPWCYVFKAGKYSSEFCSTPACSEGNSDCYFGNGSAYRGTHSLTESGASCLPWNSMILIGKVYTAQNPSAQALGLGKHNYCRNPDGDAKPWCHVLKNRRLTWEYCDVPSCSTCGLRQYSQPQFRIKGGLFADIASHPWQAAIFAKHRRSPGERFLCGGILISSCWILSAAHCFQERFPPHHLTVILGRTYRVVPGEEEQKFEVEKYIVHKEFDDDTYDNDIALLQLKSDSSRCAQESSVVRTVCLPPADLQLPDWTECELSGYGKHEALSPFYSERLKEAHVRLYPSSRCTSQHLLNRTVTDNMLCAGDTRSGGPQANLHDACQGDSGGPLVCLNDGRMTLVGIISWGLGCGQKDVPGVYTKVTNYLDWIRDNMRP", "notes": "also called full-length tPA; recombinant human tPA"}, "B2": {"name": "recombinant human β2-glycoprotein I (made in insect cells) (other, UniProt P02749 20-345, looked up)", "chain": "GRTCPKPDDLPFSTVVPLKTFYEPGEEITYSCKPGYVSRGGMRKFICPLTGLWPINTLKCTPRVCPFAGILENGAVRYTTFEYPNTISFSCNTGFYLNGADSAKCTEEGKWSPELPVCAPIICPPPSIPTFATLRVYKPSAGNNSLYRDTAVFECLPQHAMFGNDTITCTTHGNWTKLPECREVKCPFPSRPDNGFVNYPAKPTLYYKDKATFGCHDGYSLDGPEEIECTKLGNWSAMPSCKASCKVPVKKATVVYQGERVKIQEKFKNGMLHGDKVSFFCKNKEKKCSYTEDAQCIDGTIEVPKCFKEHSSLAFWKTDASDVKPC", "notes": "also called recombinant β2GPI; rec. β2GPI"}}, "key": {"[1]": {"target": "T1, human factor XII from plasma (Calbiochem, #233490) (human, UniProt P00748 20-615)", "T1 construct": "also called FXII", "T1 sequence (looked up)": "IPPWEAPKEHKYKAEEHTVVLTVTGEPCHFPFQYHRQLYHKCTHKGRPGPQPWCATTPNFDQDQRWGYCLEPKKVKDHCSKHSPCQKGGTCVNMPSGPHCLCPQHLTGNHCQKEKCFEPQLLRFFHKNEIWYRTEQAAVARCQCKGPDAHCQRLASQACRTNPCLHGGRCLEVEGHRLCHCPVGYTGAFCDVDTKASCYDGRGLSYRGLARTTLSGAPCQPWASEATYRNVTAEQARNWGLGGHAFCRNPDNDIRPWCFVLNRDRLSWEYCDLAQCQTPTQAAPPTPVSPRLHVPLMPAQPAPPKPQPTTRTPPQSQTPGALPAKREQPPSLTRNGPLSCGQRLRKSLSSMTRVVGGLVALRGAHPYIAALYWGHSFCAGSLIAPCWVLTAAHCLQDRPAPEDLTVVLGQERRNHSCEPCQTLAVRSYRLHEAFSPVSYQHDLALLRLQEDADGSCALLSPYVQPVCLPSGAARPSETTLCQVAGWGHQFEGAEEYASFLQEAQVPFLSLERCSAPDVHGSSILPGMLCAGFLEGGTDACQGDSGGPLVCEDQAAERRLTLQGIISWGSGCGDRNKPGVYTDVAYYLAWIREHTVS", "experiment": "ELISA; factor XII incubated with DXS500k or buffer immobilized, overlaid with tPA in 10 mM εACA"}, "albumin (ICN, 160069)": {"target": "T2, albumin (ICN, 160069) (bovine, UniProt P02769 25-607)", "T2 construct": "also called bovine serum albumin (ICN, #160069, fraction V)", "T2 sequence (P02769 25-607 limits assumed)": "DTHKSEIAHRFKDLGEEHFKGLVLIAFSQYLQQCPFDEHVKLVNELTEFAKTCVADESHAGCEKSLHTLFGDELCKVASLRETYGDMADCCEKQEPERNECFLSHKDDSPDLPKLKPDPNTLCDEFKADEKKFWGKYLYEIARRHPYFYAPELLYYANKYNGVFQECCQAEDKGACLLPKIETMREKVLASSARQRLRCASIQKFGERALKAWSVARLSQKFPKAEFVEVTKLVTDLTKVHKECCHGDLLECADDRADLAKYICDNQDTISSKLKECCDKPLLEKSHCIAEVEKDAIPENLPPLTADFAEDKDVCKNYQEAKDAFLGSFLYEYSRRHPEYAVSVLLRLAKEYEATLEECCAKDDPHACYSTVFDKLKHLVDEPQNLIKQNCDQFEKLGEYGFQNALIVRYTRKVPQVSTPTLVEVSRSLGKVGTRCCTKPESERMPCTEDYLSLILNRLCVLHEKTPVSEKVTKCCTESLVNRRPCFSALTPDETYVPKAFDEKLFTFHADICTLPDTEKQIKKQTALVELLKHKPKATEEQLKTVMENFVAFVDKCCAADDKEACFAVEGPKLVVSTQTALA", "experiment": "ELISA; protein incubated with DXS500k or buffer immobilized, overlaid with tPA in 10 mM εACA"}, "[2]": {"target": "T1, human factor XII from plasma …", "experiment": "ELISA: factor XII coated, concentration series of β2GPI, detection with monoclonal antibody 2B2"}, "[3]": {"target": "B1", "experiment": "ELISA: tPA coated, concentration series of β2GPI, detection with monoclonal antibody 2B2"}}, "note": "Where “and” joins values, the source holds several entries; their conditions need not be identical. Equal entries are not always repeated.", "data": [{"binder": "B1", "values": [{"measurement": "binding result", "setting": "[1]", "result": "binds"}, {"measurement": "factor of increase in tPA binding (protein exposed to DXS500k against protein in buffer only)", "setting": "albumin (ICN, 160069)", "result": 1.3, "unit": "fold"}]}, {"binder": "B2", "values": [{"measurement": "Kd", "setting": "[2]", "result": "0.9 µg/mL and 20 nM"}, {"measurement": "Kd", "setting": "[3]", "result": "2.3 µg/mL and 51 nM"}]}]}
